# Measurements from patent publication US20220387555A1 (LUDWIG INSTITUTE FOR CANCER RESEARCH, published 2022).
# Biological target: T1, human PDL1 protein (human, UniProt Q9NZQ7 19-238, limits assumed)
# T1 construct: Plate-coated protein
# Test: titration ELISA, plates coated with human PD-L1, soluble monomeric decoy, anti-His tag detection
# T1 sequence (Q9NZQ7 19-238 limits assumed): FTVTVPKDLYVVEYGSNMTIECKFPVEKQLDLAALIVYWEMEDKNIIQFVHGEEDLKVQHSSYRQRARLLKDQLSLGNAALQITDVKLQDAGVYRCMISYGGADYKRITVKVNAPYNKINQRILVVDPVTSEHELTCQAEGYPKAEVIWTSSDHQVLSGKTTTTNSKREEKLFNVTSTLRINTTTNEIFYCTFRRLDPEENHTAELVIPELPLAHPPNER
row,Binder,fold better binding than the WT PD1 decoy
1,"PD1_4XMUT_M70 (with 6xHis) (receptor, also called soluble monomeric PD1 decoy variant) MASDSPDRPWNPPTFSPALLVVTEGDNATFTCSFSNTSESFVLNWYRMSPSNQDDRLAAFPEDRSQPGQDARFRVTQLPNGRDFHMSVVRARRNDSGTYFCGAISLAPKAKIKESLRAELRVTERRALEHHHHHH",10 fold
2,"PD1_6XDM (with 6xHis) (receptor, also called PD-1 decoy variant 6XDM; soluble monomeric PD1 decoy variant) MASDSPDRPWNPPTFSPALLVVTEGDNATFTCSFSNTSESFVLNWYRMSPSNQVDRLAAFPEDRSQPGQDARFRVTQLPNGRDFHMSVVRARRNDSGTYFCGAISLAPKWKIKESLRAELRVTERRALEHHHHHH",~7.5 fold
